Source: the DeepSol protein solubility set

Test: soluble on expression in E. coli; label from the status in PepcDB or PDB records

Sequence | soluble on expression in E. coli
MSLEITKIEVHVIGPEDKRYTWSEDIEEVYQSNTLIKIFTDEDIVGEAAIWNATYFEYDKYTAESLRHLLPILIGKDPLNREEILYDIRPRVFPQPPGAQALIDNALWDILGKKCKSPIYKILGGRRDKIKSYASTVMYNTIDEYLKVVDEMKEQGFSAVKFHTYCIPKKDLELAEAARKAFPSMSFMIDAENNYDLESSLIVAKKLEKLEFTWFEAPLPDYDFAGYKKITDSVGIKVIPSGNWVVDLQRFSEAIHNKVWSATRTDMAMMGGITNCKKAIDLSSAGGLDCEIMSWGYTLVSAANLHLMLSSDNCSYYEQPLPYNNFEFGMKDVLRTSQDGYMYAPTKPGLGMEIDWDKMMSKNIYSITCEEGKKISLVHSEGHHHHHH | soluble
MFAPSTVYTYGHHGSGTDEDDGQQVMPGMDNGDGQCMVCGDRSAGKHYGVMACYGCKGFFRRTIRSQQTYTCRFTQKCAIDKDQRNACRYCRFQRCLTVGMEPEAIRPDRDVIGKQKNPRKKKMKSDTNSGSIDASLPSPNGCDSPVSNNEDVILSFLLDVEDQATCGNNHITMPIGISMMMKNDPDFDVSTLFHSQYVRNQESFPITYAVGRTASVEQLIAALRRYVLSAVHWIDALFNLAHLTEIHDKTTLLKSVIGPFTIFNIAARTAQISDGDLICLCNKSTINRQPARHLLDTNLVGNNFVGRVIDDLVFPTKKLALTNPEITILSALIILDPDARGLSQETSQALLGIRDRVQNALFNLIRDNSNNMTSVTSRFGNLLLLFPPLAKLSSLIGENVQLAKMFGIPIDSLLVELYVDADSPELISQGSHARERSDVSTQTASLEGASASMTPDVTSSEFVKMEQNESPSSSEEPMCIGAPATSSANAVATNLAADLLGLLPNFDATGLDLASAAAAAATSVNYSHFYGFGNLGGSLDDSSSSGTGSVGSFAPHSAPPISNNVNPFAVHGFFDNSAPNTGVVHNQPFRFV | not soluble
PGAPSTVRISKNVDGIHLSWEPPTSPSGNILEYSAYLAIRTAQMQDNPSQLVFMRIYCGLKTSCTVTAGQLANAHIDYTSRPAIVFRISAKNEKGYGPATQIRWLQGNSK | soluble
MNKKHVVILGAGYAGLKTLRELQKGAKDVEITLVDRNNYHYEATDLHEVAAGTQPAEKITYNIMDVVDEKMTTFIQGTVKTIDAATQTVALEDGQTINYDYLVVSLGFESESFGIPGVQEHALQMVDVKTALNVYEHIQEQMRQYKATQNEEFLKIVVCGAGFTGIELLGSLVENKPKFAEIAGVSADQIQIYCVEAVTRLLPMFNEKLANYGVQLLKDSAIHLLLGKPIKEIKPGAVVYQDNEAGDLAELSAKTIIWTTGVSGSHVVGDSGFEARRGRVMVQPDLTDANHSNVYIIGDCSAVMDTETNRPYPTTAQIALKMGAHAAKNIQAQLKGEATKPFSFKSQGSVCSVGNTRALGIVGKTDIKGYPASFMKKIIMNKALFETGGTKEMMAKGRFDLYH | not soluble
MGFKRLLASLGAGGASVETVLTEVNVVPGGVVQGEVRIQGGSVNQAIEGLSVGLQAKVEVEGHDDQEYKQDIEFAKLSLGGAFELQAGAVHAVPFGLEIPWETPITMIDGQALRGMNIGVTTELEIARAVDSGDLDPVNVHPLPAQKAILDAFVQLGFRFKNADMERGHIRGTRQRLPFYQEIEFFPPSQYRGLNQVELSFVADDREMDVILEMDKKPGLFSEGSDSYRSFQVGLNDFQGTDWTAYLHQWLSEVGSKRSWF | not soluble
MKALLEWIRKDMKPALGVTEPAAIALACAAARAMTEEPAECLLVRENSGIYKNAFTCGIPGTDKIGNEFAAALGCVAGDKEKGLLVLEEISDADVEAAKRFIEDGKVKVEVSQISSELFIYACVRTEHDCCEAEIRGQHTNICRLVKNGRVLLEKKTRELEETARPGSLTDYTMEEFFRFAKETPVEDLYFIREAYRVNLELAKAALTSERCTLTKSLLAFNGGTDVSGDLRATARFFAGAASEARVLGLDKPAMSITGSGNHGIICTMPLYAMYRVEHHSEESLLRATVLSYLITMYMKEYSGKLSAFCGCAVAAGTGMACAMTFMRGGGFEEVLATLNNMAASIVGMICTGGNHACCMKVLAAVDTAVTSTELALSGKCISPEHGVADVCPEKTMQNIGLIAYPGMTETERVILEIMQNKKGGAKGHEETD | not soluble
MTSYDQIWETFLNNCETSDFDVPQQEEDIYKSIRNAILHFNNRLRDNLKADNSTETVNRELSEDDLLILAHFLRYIFLLNKKTLFENTWQPFTNDVGIKNFGTQLNSLKQSVMDQKDEIERLILNAAVDYLLEHHHHHH | not soluble
